{"source": "paper PMC8590011", "about": "“WRN helicase safeguards deprotected replication forks in BRCA2-mutated cancer cells”", "binders": {"B1": {"name": "chicken-foot (CF) reversed fork substrate, oligos A+B+C+D (structured_DNA)", "DNA 1": "CTTTAGCTGCATATTTACAACATGTTGACCTTCAGTACAATCTGCTCTGATGCCGCATAGTGTCATGCCAGAGCTTTGTAC", "DNA 2": "CGGGTGTCGGGGCGCATGACACTATGCGGCATCAGAGCAGATTGTACTGAAGGTCAACATGTTGTAAATATGCAGCTAAAG", "DNA 3": "GTACAAAGCTCTGGCATGATACTATGCGGCATCAGAGCAGATT", "DNA 4": "TCAGTACAATCTGCTCTGATGCCGCATAGTATCATGCGCCCCGACACCCG", "modifications": "iMe-isodC at position 38 of oligo A (written as C)"}}, "biological_target": "FLAG-WRN K577M/E84A (UniProt Q14191 1-1432, E84A;K577M)", "sequence (Q14191 whole entry E84A/K577M)": "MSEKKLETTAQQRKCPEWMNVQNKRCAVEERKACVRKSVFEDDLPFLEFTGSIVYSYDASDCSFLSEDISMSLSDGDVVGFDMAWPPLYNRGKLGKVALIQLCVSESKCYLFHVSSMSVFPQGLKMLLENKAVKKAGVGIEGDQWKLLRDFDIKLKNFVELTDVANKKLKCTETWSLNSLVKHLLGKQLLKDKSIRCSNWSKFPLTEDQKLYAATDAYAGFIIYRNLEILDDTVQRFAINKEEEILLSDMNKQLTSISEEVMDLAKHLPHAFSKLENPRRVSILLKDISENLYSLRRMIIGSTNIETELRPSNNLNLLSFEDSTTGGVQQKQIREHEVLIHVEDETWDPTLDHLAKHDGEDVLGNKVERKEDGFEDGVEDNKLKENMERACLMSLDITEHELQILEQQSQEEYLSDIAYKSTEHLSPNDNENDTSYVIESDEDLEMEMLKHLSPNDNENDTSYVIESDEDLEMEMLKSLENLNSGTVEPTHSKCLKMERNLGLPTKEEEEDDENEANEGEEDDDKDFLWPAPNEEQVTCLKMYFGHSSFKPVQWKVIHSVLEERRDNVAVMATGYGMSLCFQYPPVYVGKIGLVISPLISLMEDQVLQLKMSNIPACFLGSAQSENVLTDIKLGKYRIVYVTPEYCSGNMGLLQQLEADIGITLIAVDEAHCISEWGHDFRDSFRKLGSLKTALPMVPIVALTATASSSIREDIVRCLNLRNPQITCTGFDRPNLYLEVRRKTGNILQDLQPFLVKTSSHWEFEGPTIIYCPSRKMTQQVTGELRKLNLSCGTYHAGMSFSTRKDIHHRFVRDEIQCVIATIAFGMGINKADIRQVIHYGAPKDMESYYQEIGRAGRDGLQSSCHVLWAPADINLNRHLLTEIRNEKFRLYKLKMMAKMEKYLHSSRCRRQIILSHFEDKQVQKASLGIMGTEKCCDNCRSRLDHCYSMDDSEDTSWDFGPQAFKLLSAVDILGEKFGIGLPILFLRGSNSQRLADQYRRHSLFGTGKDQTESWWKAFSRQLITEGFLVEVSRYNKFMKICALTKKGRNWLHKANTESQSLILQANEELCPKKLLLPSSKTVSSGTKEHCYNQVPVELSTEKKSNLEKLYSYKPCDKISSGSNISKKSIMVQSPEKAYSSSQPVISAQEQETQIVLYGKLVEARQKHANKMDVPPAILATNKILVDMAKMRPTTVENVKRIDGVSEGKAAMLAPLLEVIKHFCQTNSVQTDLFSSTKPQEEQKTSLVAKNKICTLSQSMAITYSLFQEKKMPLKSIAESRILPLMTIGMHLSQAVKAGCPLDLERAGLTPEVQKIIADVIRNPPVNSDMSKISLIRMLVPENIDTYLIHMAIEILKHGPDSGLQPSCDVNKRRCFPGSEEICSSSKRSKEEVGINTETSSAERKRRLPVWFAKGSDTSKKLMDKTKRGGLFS", "experiment": "EMSA; 2 mM ATPgS, 5 mM MgCl2; affinity similar to WT; Kd is only in Supp Fig 1e, value not in material; 35 mM Tris-HCl pH 7.5, 20 mM KCl, 5 mM MgCl2, 0.1 mg/ml BSA, 2 mM DTT, 5% glycerol, 2 mM ATPgS, 2 nM DNA, 15 min at RT; 5% 1x TBE native PAGE at 4 C", "conditions": "protein: recombinant; tags: N-terminal FLAG (6xHis removed with TEV); label: 5' 32P on oligo B (as described for the CF preparation); four-strand regressed fork: AB partial duplex annealed to CD partial duplex"}
{"binder": "B1", "values": [{"measurement": "binding result", "result": "binds"}]}
